According to US7432093B2, “Soluble, functional apoptotic protease-activating factor 1 fragments” (The Trustees of Princeton University, priority 2004, dated 2008):
“Also recorded” adds a separate entry of the source.

T1: Apaf-1 (Homo sapiens, UniProt O14727)
T1 sequence (O14727 1-1248): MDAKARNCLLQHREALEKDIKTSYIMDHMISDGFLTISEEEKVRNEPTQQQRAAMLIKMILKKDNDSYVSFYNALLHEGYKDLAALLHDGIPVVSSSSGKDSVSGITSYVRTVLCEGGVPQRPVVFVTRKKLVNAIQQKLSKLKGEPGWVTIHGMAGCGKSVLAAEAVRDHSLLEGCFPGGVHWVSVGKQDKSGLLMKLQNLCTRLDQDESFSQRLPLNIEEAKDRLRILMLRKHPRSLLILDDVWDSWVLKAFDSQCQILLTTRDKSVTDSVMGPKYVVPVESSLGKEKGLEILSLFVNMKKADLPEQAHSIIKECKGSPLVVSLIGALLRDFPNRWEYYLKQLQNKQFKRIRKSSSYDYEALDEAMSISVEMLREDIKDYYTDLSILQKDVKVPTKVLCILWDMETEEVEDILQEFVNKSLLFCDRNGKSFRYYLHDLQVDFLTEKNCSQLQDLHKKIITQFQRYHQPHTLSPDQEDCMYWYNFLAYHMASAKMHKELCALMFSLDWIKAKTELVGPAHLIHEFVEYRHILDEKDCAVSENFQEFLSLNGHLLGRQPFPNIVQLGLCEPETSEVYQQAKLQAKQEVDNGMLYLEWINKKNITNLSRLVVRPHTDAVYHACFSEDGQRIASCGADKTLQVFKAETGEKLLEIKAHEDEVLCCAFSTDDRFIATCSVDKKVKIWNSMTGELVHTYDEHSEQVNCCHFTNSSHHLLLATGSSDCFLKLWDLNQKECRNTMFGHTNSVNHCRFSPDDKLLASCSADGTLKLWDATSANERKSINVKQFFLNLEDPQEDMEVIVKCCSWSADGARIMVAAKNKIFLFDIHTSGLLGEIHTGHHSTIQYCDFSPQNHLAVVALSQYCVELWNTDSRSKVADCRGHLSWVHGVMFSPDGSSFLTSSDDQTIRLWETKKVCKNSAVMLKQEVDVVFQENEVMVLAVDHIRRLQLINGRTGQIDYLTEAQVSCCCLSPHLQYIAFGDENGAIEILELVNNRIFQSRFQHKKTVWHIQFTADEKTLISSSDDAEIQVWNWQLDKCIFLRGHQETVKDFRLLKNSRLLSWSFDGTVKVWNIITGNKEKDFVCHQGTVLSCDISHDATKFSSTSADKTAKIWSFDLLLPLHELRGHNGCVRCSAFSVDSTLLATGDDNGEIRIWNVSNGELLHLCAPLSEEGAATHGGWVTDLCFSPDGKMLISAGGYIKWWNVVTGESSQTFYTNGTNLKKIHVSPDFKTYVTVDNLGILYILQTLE

T2: caspase-9 activation by the soluble Apaf-1 fragment (Homo sapiens, UniProt O14727)
T2 construct: Leu-Glu-His6 (C); made in house; host or cells: Escherichia coli BL21(DE3), pET29 (both proteins)
T2 sequence (O14727 1-591): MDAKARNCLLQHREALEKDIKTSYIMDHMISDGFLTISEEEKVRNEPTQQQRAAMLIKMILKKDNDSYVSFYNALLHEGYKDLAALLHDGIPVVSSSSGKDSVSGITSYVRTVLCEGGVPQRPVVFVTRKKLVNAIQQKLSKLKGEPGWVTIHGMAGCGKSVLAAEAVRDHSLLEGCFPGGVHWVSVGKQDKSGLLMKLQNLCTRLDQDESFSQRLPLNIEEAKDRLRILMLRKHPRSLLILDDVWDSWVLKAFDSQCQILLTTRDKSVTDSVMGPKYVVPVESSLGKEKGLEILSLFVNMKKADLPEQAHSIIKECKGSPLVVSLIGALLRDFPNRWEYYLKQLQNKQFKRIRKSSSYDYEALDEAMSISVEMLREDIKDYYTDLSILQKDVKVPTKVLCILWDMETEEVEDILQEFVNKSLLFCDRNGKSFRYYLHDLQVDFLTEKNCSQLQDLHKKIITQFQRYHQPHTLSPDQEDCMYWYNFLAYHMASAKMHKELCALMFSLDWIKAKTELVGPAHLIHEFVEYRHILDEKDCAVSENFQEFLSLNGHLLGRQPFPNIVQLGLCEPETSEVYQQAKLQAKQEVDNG
T2 sequence (P55211 1-315 partner limits assumed): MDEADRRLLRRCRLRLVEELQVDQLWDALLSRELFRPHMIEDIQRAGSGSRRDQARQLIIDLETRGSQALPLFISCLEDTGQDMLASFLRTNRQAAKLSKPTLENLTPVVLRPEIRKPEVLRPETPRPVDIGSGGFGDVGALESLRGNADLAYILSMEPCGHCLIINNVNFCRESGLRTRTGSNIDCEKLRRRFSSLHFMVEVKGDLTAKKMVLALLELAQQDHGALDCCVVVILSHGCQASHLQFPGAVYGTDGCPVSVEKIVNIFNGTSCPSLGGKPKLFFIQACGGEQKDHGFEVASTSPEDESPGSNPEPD
T2 sequence (P55211 331-416 partner limits assumed): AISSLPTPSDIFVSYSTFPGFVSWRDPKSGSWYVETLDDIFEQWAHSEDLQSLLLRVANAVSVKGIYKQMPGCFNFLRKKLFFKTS

T3: soluble Apaf-1 fragment (residues 1-591) (Homo sapiens, UniProt O14727)
T3 construct: Leu-Glu-His6 (C); made in house; host or cells: Escherichia coli BL21(DE3), pET29
T3 sequence (O14727 1-591): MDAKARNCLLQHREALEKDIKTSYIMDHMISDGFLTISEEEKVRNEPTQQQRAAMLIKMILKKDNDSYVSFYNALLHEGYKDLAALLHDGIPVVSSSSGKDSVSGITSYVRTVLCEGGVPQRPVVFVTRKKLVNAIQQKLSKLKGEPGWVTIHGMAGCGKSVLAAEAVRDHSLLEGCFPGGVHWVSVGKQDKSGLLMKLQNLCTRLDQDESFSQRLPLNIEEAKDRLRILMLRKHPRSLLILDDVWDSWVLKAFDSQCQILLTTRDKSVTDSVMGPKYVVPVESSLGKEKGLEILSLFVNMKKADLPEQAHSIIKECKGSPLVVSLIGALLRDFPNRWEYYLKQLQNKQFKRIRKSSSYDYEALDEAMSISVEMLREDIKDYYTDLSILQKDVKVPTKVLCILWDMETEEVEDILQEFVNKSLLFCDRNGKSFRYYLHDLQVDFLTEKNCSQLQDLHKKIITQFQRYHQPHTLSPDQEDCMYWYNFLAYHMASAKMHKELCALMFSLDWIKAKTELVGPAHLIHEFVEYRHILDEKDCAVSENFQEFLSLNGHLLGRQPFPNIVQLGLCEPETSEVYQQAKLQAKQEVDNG


What was measured:
Apaf-1 = biological target: T1, Apaf-1; conditions: observed by others, explained by the structure; cited from earlier work
[1] = type: physicochemical, E. coli
Method: Preferably, solubility of the fragment is assessed in a lysate of a bacterial culture used to produce the fragment at a concentration of at least 1 milligram per liter of bacterial culture.
All constructs for protein expression were generated using a standard PCR-based cloning strategy, and the identity of individual clones was verified by double-stranded plasmid sequencing. A soluble Apaf-1 fragment (residues 1-591, sequence (SEQ ID NO: 1) shown in FIG. 1) was over-expressed in Escherichia coli strain BL21(DE3) using plasmid vector pET29 having the nucleotide sequence described by Jiang et al. (2000, J. Biol. Chem. 275:31199-31203) operatively ligated therein. The coding sequence included an additional sequence encoding eight amino acid residues at its carboxy-terminal end (i.e., linked to residue 591 in the translated protein). These residues (Leu-Glu-His6) included a nickel-binding hexa-histidine sequence used for metal affinity chromatographic purification of the expressed protein. Soluble Apaf-1 was purified from the cell lysate using a Ni-NTA (nitrilotriacetic acid-ligated nickel; Qiagen) chromatography column. Dithiothreitol (DTT) and ethylenediamine tetraacetic acid (EDTA) were added to the eluted fraction in final concentrations of 5 millimolar each. After incubation for 30 minutes on ice, the protein solution was applied to an anion-exchange column (Source-15Q, Pharmacia) for further purification.

[2] = biological target: T2, caspase-9 activation by the soluble Apaf-1 fragment; assay: Caspase-9 activation assay (fluorogenic, LEHD-AMC); type: biochemical; conditions: absence of ATP and of the apoptosome
Method: A fluorogenic assay was developed to monitor caspase-9 activation by the soluble Apaf-1 fragment. […] Then, caspase-9 and Apaf-1 were added to a final volume of 200 microliter and final concentrations of 0.2 micromolar and 2 micromolar, respectively. After incubation for 5 minutes at room temperature, the caspase-9 substrate LEHD-AMC (a tetrapeptide coupled to 7-amino […]) was added to the reaction at a final concentration of 200 micromolar. The conversion of the fluorogenic substrate was then measured using a Hitachi F2500 fluorescence spectrophotometer with an excitation wavelength of 380 nanometers and a fluorescence detection wavelength of 440 nanometers.

[3] = biological target: T3, soluble Apaf-1 fragment (residues 1-591); assay: ATPase assay (TLC, conversion of (alpha-32P)ATP to ADP); type: biochemical
Method: ATPase activity was determined using a thin layer chromatography (TLC) assay designed to quantitatively measure the conversion of (alpha-^32P)ATP to ADP. Reactions were initiated by mixing the soluble Apaf-1 fragment at a final concentration of 2 micromolar with a solution containing 20 millimolar HEPES, pH 7.5, 10 millimolar DTT, 10 micromolar magnesium chloride, 0.1 micromolar (alpha-^32P)ATP, and 8 micromolar ATP. The reaction was incubated at room temperature for the indicated duration and then quenched by addition of an equal volume of developing solvent (1 molar formic acid, 0.5 molar LiCl). Samples were evaluated based on the differential mobility of ATP versus ADP on TLC using polyethyleneimine-cellulose F plates.

| Molecule | activation of Apaf-1 (Apaf-1) | Solubility [1] | solubility and solution behavior (in words) [1] | catalytic activity of caspase-9 in the presence of Apaf-1 [2] | ATPase activity (appearance of ADP on TLC) ([3]; 2 micromolar fragment, magnesium present, room temperature, FIG. 6A) | ATPase activity on incubation with EDTA ([3]; EDTA added (magnesium removed), FIG. 6A lane 3) |
| --- | --- | --- | --- | --- | --- | --- |
| Nc1nc2c(ncn2[C@@H]2O[C@H](COP(=O)(O)OP(=O)(O)OP(=O)(O)O)[C@@H](O)[C@H]2O)c(=O)[nH]1 [GTP] | does not activate Apaf-1 |  |  |  |  |  |
| 1-591: soluble human Apaf-1 fragment, residues 1-591 (SEQ ID NO: 1), expressed in E. coli BL21(DE3) with C-terminal Leu-Glu-His6 (protein, listed as Homo sapiens, C-terminal Leu-Glu-His6 tag) MDAKARNCLLQHREALEKDIKTSYIMDHMISDGFLTISEEEKVRNEPTQQQRAAMLIKMILKKDNDSYVSFYNALLHEGYKDLAALLHDGIPVVSSSSGKDSVSGITSYVRTVLCEGGVPQRPVVFVTRKKLVNAIQQKLSKLKGEPGWVTIHGMAGCGKSVLAAEAVRDHSLLEGCFPGGVHWVSVGKQDKSGLLMKLQNLCTRLDQDESFSQRLPLNIEEAKDRLRILMLRKHPRSLLILDDVWDSWVLKAFDSQCQILLTTRDKSVTDSVMGPKYVVPVESSLGKEKGLEILSLFVNMKKADLPEQAHSIIKECKGSPLVVSLIGALLRDFPNRWEYYLKQLQNKQFKRIRKSSSYDYEALDEAMSISVEMLREDIKDYYTDLSILQKDVKVPTKVLCILWDMETEEVEDILQEFVNKSLLFCDRNGKSFRYYLHDLQVDFLTEKNCSQLQDLHKKIITQFQRYHQPHTLSPDQEDCMYWYNFLAYHMASAKMHKELCALMFSLDWIKAKTELVGPAHLIHEFVEYRHILDEKDCAVSENFQEFLSLNGHLLGRQPFPNIVQLGLCEPETSEVYQQAKLQAKQEVDNG |  | ++++ | good solubility and solution behavior | significantly and reproducibly elevated; also recorded: significantly improved the caspase catalytic activity | exhibited ATPase activity | abrogation of the observed ATPase activity |
